Experimental data reported in IntAct's records for PubMed 19805276.

B1: Stage IV sporulation protein FB (Bacillus subtilis), P26937 (parent)
chain: MNKWLDLILKIHVHPFLWIIAALGLLTGHMKALLCLLLIVLIHELGHAALAVFFSWRIKRVFLLPFGGTVEVEEHGNRPLKEEFAVIIAGPLQHIWLQFAAWMLAEVSVIHQHTFELFTFYNLSILFVNLLPIWPLDGGKLLFLLFSKQLPFQKAHRLNLKTSLCFCLLLGCWVLFVIPLQISAWVLFVFLAVSLFEEYRQRHYIHVRFLLERYYGKNRELEKLLPLTVKAEDKVYHVMAEFKRGCKHPIIIEKSGQKLSQLDENEVLHAYFADKRTNSSMEELLLPY
partner: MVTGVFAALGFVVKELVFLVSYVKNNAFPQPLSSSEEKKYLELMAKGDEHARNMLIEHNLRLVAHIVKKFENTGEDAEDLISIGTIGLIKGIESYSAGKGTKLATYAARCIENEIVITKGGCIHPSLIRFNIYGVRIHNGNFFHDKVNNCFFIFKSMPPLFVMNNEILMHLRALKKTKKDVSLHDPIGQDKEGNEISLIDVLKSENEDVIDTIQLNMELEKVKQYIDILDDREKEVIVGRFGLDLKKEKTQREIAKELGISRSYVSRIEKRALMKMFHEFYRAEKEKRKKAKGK

Variants of: B1
Details: with rpsk_bacsu sigK

Variant	effect of a mutation on the interaction
MNKWLDLILKIHVHPFLWIIAALGLLTGHMKALLCLLLIVLIHQLGHAALAVFFSWRIKRVFLLPFGGTVEVEEHGNRPLKEEFAVIIAGPLQHIWLQFAAWMLAEVSVIHQHTFELFTFYNLSILFVNLLPIWPLDGGKLLFLLFSKQLPFQKAHRLNLKTSLCFCLLLGCWVLFVIPLQISAWVLFVFLAVSLFEEYRQRHYIHVRFLLERYYGKNRELEKLLPLTVKAEDKVYHVMAEFKRGCKHPIIIEKSGQKLSQLDENEVLHAYFADKRTNSSMEELLLPY [E44Q]	disrupting interaction
